Test results published in patent US20240376163A1, “PEPTIDE FOR INHIBITING CALCINEURIN AND USE THEREOF” (Seoul National University R&DB Foundation, priority 2023, published 2024).

Biological target: T1, CNAβ2 (Homo sapiens, UniProt P16298)
T1 construct: expressed in transfected cells; host or cells: HEK293T
Experiment: Mammalian two-hybrid assay (GAL4 DBD-peptides, VP16 AD-CNAβ2, pG5-luc) in HEK293T cells
Type: cell-based
Conditions: HEK293T
Experimental: To measure the transcriptional activity of NFAT, Jurkat T cells were cotransfected with GST-tagged peptides and NFAT-luc by electroporation. After 24 hours, the cells were pretreated with 0.5 μM FK506 for 1 hour and then treated with 40 nM PMA and 1 μM ionomycin for 8 hours. For mammalian two-hybrid assay, HEK293T cells were cotransfected with GAL4 DBD-tagged CABIN1, VIVIT, chimeric, and substituted peptides, VP16 activation domain-tagged CNAβ2, and pG5-luc (a luciferase reporter plasmid containing the GAL4 reaction promoter) for 24 hours. Harvested cells were lysed with luciferase assay lysis buffer (17 mM KH2PO4, 183 mM K2HPO4, pH 7.8, 0.2% [v/v] Triton X-100) and sonicated briefly. The luciferase activity against each cell lysate was measured using Infinite M200 (Tecan, Männedorf, and Switzerland). In addition, the expression level of the transfected protein was confirmed by Western blotting.

T1 sequence (P63098 2-170 partner limits assumed, other chains not shown): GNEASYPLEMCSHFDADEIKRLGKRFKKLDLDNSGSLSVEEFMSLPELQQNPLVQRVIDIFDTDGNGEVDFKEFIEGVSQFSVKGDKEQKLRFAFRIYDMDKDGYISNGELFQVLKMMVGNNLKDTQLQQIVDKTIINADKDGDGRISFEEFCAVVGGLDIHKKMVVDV

PEITVTPPTP [CABIN1-L-1-2]
effect of ionomycin treatment on interaction with CNA (1 μM ionomycin): did not affect the interaction
binding to CNA (GAL4 DBD-tagged peptides, VP16 activation domain-tagged CNA): still bound to CNA
